Consider three substances from patent US20030186329A1, “Use of substrate subtraction libraries to distinguish enzyme specificities” (The Scripps Research Institute, priority 1998, published 2003).

For assay [1], the target named is urokinase-type plasminogen activator (u-PA) (human) (UniProt P00749). In words: ratio of the rate constants for inhibition of u-PA and t-PA.
Assay [2] shares this target. In words: inhibition kinetics, residual enzymatic activity, indirect chromogenic assay.
For assay [3], the target named is tissue plasminogen activator (t-PA) (human) (UniProt P00750). Kind of assay: inhibition kinetics, residual enzymatic activity.
tissue plasminogen activator (t-PA) (human), sequence (P00750 36-562 limits assumed): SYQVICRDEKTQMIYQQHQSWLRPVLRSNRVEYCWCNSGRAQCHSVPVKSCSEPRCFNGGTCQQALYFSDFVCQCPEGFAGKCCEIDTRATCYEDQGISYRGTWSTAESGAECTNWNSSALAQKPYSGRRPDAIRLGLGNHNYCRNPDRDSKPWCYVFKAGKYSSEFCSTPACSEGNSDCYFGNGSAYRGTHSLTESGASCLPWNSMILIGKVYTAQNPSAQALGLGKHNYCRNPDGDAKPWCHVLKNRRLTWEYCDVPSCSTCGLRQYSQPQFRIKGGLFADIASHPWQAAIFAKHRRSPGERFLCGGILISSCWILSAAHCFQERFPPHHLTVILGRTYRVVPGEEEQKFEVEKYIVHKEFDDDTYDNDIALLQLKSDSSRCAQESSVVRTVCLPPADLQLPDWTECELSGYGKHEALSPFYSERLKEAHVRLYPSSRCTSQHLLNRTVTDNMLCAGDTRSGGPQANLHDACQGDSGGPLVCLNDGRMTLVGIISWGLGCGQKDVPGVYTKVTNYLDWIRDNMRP
In assay [4] the target is urokinase-type plasminogen activator (u-PA) (human) (UniProt P00749). Kind of assay: inhibition kinetics, residual enzymatic activity.
The target of assay [5] is tissue plasminogen activator (t-PA) (human) (UniProt P00750). Kind of assay: ratio of the rate constants for inhibition of t-PA and u-PA.
The target in assay [6] is urokinase-type plasminogen activator (u-PA) (human) (UniProt P00749). Kind of assay: ratio of the rate constants for inhibition of u-PA, wild type against variant.

“wild type plasminogen activator inhibitor type 1 (PAI-1) (from UniProt P05121 24-402) (other; other documents disagree on this pair)”: the fold specificity toward u-PA over t-PA in assay [1] came out at 11.9 fold. This substance showed a second order rate constant for inhibition in assay [2] of 1.9e+07 M⁻¹ s⁻¹.
As to PAI-1/P3R (from UniProt P05121 24-402), the second order rate constant for inhibition in assay [3] was 1.4e+06 M⁻¹ s⁻¹; in assay [4], 100000 M⁻¹ s⁻¹. The t-PA/u-PA Selectivity in assay [5] was 14. In assay [6], the fold reduction of activity against wild type PAI-1 stood at 190 fold.
Regarding “PAI-1/P4Q, P3R (from UniProt P05121 24-402)”, the second order rate constant for inhibition in assay [3] worked out at 1.4e+06 M⁻¹ s⁻¹; in assay [4] it was 29000 M⁻¹ s⁻¹. The t-PA/u-PA Selectivity in assay [5] came to 48.
